Measured values published in publication PMC11727178, “Computer-Aided Design to Improve the Thermal Stability of Rhizomucor miehei Lipase” (Foods, 2024).
Numbering of substitutions follows the chain as printed. Names may count otherwise.

B1: Rhizomucor miehei lipase (RML) (Rhizomucor miehei) (protein)
chain: VPIKRQSNSTVDSLPPLIPSRTSAPSSSPSTTDPEAPAMSRNGPLPSDVETKYGMALNATSYPDSVVQAMSIDGGIRAATSQEINELTYYTTLSANSYCRTVIPGATWDCIHCDATEDLKIIKTWSTLIYDTNAMVARGDSEKTIYIVFRGSSSIRNWIADLTFVPVSYPPVSGTKVHKGFLDSYGEVQNELVATVLDQFKQYPSYKVAVTGHSLGGATALLCALDLYQREEGLSSSNLFLYTQGQPRVGDPAFANYVVSTGIPYRRTVNERDIVPHLPPAAFGFLHAGEEYWITDNSPETVQVCTSDLETSDCSNSIVPFTSVLDHLSYFGINTGLCT
B2: Rhizomucor miehei lipase (RML) (Rhizomucor miehei; E324I/N214M/N358M) (protein)
chain: B1 chain with N190M, E300I, N334M

Substrate: CCCCCCCCCCCC(=O)Oc1ccc([N+](=O)[O-])cc1
Assay: p-nitrophenol release, Michaelis-Menten
Type: biochemical, Rhizomucor miehei

Row | Protein | Km (at the enzyme's optimal conditions (optimum 45 °C)) | Km (at the enzyme's optimal conditions (optimum 55 °C))
1 | B1 | 92 µM | –
2 | B2 | – | 31.75 µM
